Publication PMC4609183 (The EMBO Journal, 2015)

B1: R0RBR parkin (residues 141–465, lacking Ubl domain and linker) (domain or fragment, human, UniProt O60260 141-465, looked up)
chain: SIYNSFYVYCKGPCQRVQPGKLRVQCSTCRQATLTLTQGPSCWDDVLIPNRMSGECQSPHCPGTSAEFFFKCGAHPTSDKETSVALHLIATNSRNITCITCTDVRSPVLVFQCNSRHVICLDCFHLYCVTRLNDRQFVHDPQLGYSLPCVAGCPNSLIKELHHFRILGEEQYNRYQQYGAEECVLQMGGVLCPRPGCGAGLLPEPDQRKVTCEGGNGLGCGFAFCRECKEAYHEGECSAVFEASGTTTQAYRVDERAAEQARWEAASKETIKKTTKPCPRCHVPVEKNGGCMHMKCPQPQCRLEWCWNCGCEWNRVCMGDHWFDV
B2: parkin Ubl domain (domain or fragment, human, UniProt O60260 1-76, looked up)
chain: MIVFVRFNSSHGFPVEVDSDTSIFQLKEVVAKRQGVPADQLRVIFAGKELRNDWTVQNCDLDQQSIVHIVQRPWRK

Assays:
Test in all cases: ITC; 50 μM R0RBR, full-length parkin or phosphoparkin titrated with Ub, Ubl or their variants; 25°C; 50 mM HEPES, 50 mM NaCl, 250 μM TCEP pH 7.5 or 50 mM HEPES, 150 mM NaCl, 0.5 mM TCEP pH 8.0; single-site model
Conditions in all cases: both partners purified
ubiquitin = ubiquitin (UniProt P0CG47 1-76)
phosphoubiquitin = phosphoubiquitin (UniProt P0CG47 1-76, phosphoserine at 65)
[1] = molecular target: B1

Kd (ubiquitin) [µM] | Kd (phosphoubiquitin) [µM] | Kd [1] [µM] | dH [1] [kcal/mol] | stoichiometry N [1] | Binder
67 ± 1 | 0.016 ± 0.002 |  |  |  | B1
 |  | 3.8 ± 1.3 | -10.5 ± 0.717 | 0.98 | B2
